Experimental data from patent publication US20220227872A1 (published 2022).
Each block holds one binder with its values, some of them ahead of it.

Assays:
1C1 BiTE = assay: SPR; BiTE analyte, hTEM1-SpyC immobilized
[1] = molecular target: T1, hTEM1-SpyC (human TEM1 extracellular domain fused to SpyCatcher) (UniProt Q9HCU0 18-687, covalently bound to biotinylated SpyTag peptide (bSpyT)); assay: SPR; BiTE analyte, hTEM1-SpyC immobilized
T1 chain: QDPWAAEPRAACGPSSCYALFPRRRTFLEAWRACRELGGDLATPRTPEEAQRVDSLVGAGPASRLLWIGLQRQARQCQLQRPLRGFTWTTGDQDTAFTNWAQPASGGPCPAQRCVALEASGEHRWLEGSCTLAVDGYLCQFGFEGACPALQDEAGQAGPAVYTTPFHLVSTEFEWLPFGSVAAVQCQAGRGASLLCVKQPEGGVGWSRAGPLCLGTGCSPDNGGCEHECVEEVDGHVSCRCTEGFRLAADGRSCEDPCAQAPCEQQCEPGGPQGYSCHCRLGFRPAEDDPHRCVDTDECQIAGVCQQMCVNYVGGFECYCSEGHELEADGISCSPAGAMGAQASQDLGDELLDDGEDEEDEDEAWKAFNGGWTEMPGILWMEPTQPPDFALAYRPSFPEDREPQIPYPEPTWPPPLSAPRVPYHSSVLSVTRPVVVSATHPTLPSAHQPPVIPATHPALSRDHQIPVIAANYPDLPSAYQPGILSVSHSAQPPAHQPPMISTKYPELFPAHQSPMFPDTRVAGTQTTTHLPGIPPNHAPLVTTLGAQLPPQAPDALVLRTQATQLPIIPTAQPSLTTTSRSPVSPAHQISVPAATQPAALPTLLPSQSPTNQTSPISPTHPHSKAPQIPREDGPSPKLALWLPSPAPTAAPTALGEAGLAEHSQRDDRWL

Kd (1C1 BiTE): ~68 nM
B1: hTEM1-SpyC (other)
chain: T1 chain
modifications: covalently bound to biotinylated SpyTag peptide (bSpyT)

Kd [1]: ~1 nM
B2: 1C1mut BiTE (1C1mut scFv fused to an scFv derived from anti-CD3 clone UCHT1) (bispecific antibody, V domains shown)
VH: QVQLVQSGAEVKKPGSSVKVSCKASGGTFSSYAISWVRQAPGQGLEWMGGIIPIFGTANYAQKFQGRVTITADKSTSTAYMELSSLRSEDTAVYYCASLISYYGDPTGFDYWGQGTLVTVSS
VL: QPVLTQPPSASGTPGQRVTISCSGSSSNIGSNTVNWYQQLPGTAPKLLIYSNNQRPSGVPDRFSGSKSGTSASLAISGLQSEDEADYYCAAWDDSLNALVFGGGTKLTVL
